One block for each binder: values may come before it.
Legend:
[1] = target: T1, Arabidopsis thaliana CDC48A (Arabidopsis thaliana, UniProt P54609 1-809); assay: ITC; AtCDC48A in the cell (30 µM; 10 µM for AtNPL4B UBXL), partner 200 µM in the syringe; 2 mM AMPPNP; 50 mM Bis-Tris pH 6.5, 100 mM NaCl, 1 mM TCEP, 2 mM MgCl2; 25°C; conditions: both partners purified
T1 construct: Cell division cycle protein 48 A (AtCDC48A), Arabidopsis thaliana, locus AT3g09840; recombinant full-length protein; Homo-hexamer; ADP-saturated or nucleotide-free in some experiments (told by the assay); also called AtCDC48A; AtCDC48; not shown: GST, N-terminal, cleaved

[2] = target: T2, Arabidopsis thaliana NPL4 (Arabidopsis thaliana, UniProt O82264 1-413, Alexa-488 dye label in the MST experiments only); assay: MST; Alexa-488-labelled AtNPL4 (50 nM dye solution mixed 1:1), AtUFD1A or AtUFD1B titrated in 16 dilutions; pH 7.5 (50 mM Tris-HCl, 100 mM NaCl, 1 mM TCEP), Tween-20; conditions: both partners purified
T2 construct: Nuclear protein localisation protein 4 (AtNPL4), Arabidopsis thaliana, locus AT2g47970; cDNA cloned into pGEX6P-1; also called AtNPL4; wild-type AtNPL4; not shown: GST, N-terminal, cleaved
T2 sequence: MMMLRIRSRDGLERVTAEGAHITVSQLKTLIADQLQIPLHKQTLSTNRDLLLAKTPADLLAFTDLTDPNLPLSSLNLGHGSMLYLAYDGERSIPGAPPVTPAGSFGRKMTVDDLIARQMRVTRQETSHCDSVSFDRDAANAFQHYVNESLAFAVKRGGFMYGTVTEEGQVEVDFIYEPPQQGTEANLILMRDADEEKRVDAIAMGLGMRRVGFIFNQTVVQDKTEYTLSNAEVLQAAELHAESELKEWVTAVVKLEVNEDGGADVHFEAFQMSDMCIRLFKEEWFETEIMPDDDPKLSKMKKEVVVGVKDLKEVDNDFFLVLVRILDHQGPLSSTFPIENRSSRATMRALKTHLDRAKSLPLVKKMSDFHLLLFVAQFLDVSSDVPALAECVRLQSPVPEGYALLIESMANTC

T1 sequence (P54609 whole entry): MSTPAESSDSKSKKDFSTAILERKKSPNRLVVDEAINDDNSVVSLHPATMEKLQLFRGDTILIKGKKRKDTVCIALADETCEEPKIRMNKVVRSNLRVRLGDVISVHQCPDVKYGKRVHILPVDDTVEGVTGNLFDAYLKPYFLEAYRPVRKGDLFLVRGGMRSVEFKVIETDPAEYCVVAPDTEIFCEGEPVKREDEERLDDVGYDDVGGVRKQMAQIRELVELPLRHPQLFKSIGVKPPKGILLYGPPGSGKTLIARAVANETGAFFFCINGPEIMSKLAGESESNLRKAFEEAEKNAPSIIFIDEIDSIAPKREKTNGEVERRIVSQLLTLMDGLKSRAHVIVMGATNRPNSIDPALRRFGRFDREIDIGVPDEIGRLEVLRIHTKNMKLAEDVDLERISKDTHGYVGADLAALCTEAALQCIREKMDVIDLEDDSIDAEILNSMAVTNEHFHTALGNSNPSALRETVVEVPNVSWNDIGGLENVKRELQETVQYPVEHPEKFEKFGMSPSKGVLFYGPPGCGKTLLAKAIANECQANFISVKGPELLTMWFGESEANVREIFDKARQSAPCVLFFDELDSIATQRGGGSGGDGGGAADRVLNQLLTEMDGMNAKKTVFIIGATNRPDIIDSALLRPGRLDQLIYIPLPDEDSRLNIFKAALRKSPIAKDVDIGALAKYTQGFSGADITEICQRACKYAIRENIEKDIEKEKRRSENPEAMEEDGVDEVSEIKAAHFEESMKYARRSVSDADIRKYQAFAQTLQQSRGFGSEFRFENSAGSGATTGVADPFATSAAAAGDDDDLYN

- stoichiometry N [1]: 6 AtNPL4B_(UBXL) per hexamer
B1: AtNPL4B UBXL domain (domain or fragment, Arabidopsis thaliana, UniProt Q9LYC2 1-89, looked up)
chain: MTMLRVRSRDGLERVSVDGPHITVSQLKTLIQDQLQIPIHNQTLSTNRNLLLAKSPSDFLAFTDMADPNLRISSLNLAHGSMVYLAYEG
notes: UBX-like (UBXL) domain of AtNPL4B, Arabidopsis thaliana, locus AT3g63000, residues 1-89; also called the isolated UBXL domain; not shown: GST, N-terminal, cleaved

- binding result [1]: binds
B2: AtNPL4B F105A (natural protein, Arabidopsis thaliana, UniProt Q9LYC2 1-413, looked up)
chain: MTMLRVRSRDGLERVSVDGPHITVSQLKTLIQDQLQIPIHNQTLSTNRNLLLAKSPSDFLAFTDMADPNLRISSLNLAHGSMVYLAYEGERTIRGGPAVTPAGSAGRKMTVEDLIARQMRVGRQEKAHCDSVSFDRDCANAFQHFVNESLAFAVKRGGFMYGNVSEDGQVEVNFIYEPPQQGMEDNLILMRDSEEEKRVDAIALGLGMRRVGFIFNQTVTQDKKEYTLSNVEVLLAAQLHAESELKEWVTAVVKLEINEDGGADVHFEPFQMSDMCVRLFKEGWFETEIGPEDDPKLSKLKKEVVVGVKDVKEVDNDFFLVLVKILDHQGPLSCTFPIENRNTQTTMRALKTHMERARSLPFVKRISDFHLLLFVAQFLDVSSDVPALAECVRLQSHVPEGYELLIDSMANTS
notes: AtNPL4B, second NPL4 variant of Arabidopsis thaliana, locus AT3g63000 (84% identical to AtNPL4); ordered from Twist Biosciences in pGEX6P-1; The wild-type AtNPL4B was not measured; also called the F105 mutant; not shown: GST, N-terminal, cleaved

- Kd [2]: > 200 µM
B3: Arabidopsis thaliana UFD1B (natural protein, UniProt Q9SJV0 1-340, looked up)
chain: MVLRFCCHLLTYSVSLLPPITMFFDGYHYHGTTFEQSYRCYPASFIDKPQLESGDKIIMPPSALDRLASLHIDYPMLFELRNAGIERVTHCGVLEFIAEEGMIYMPYWMMQNLLLQEGDIVRVRNVTLPKGTYVKLQPHTTDFLDISNPKAILETALRNYSCLTSGDSIMVPYNNKKYFIDIVETKPANAISIIETDCEVDFAPPLDYKEPERPTAPSAAKGPAKAEEVVDEPEPKFNPFTGSGRRLDGRPLAYEPAPASSSKGKQPVVANGNGQSSVASSSEKATRAQGKLVFGANGNRAPKEAAPKVGAAKETKKEEQEKKDEPKFQAFSGKKYSLRG
notes: Ubiquitin fusion degradation protein 1 paralogue B (AtUFD1B), Arabidopsis thaliana, locus AT2g21270; cDNA cloned into pGEX6P-1; also called AtUFD1B; AtUFD1; not shown: GST, N-terminal, cleaved
